Data: US20130336893A1 (Sanofi, published 2013)
*1 amine or outer side, *2 acyl side, *3 side chain or, on linkers, in order; H or OH if unused. Where no end group is shown, it is not given here. Side-chain parts run from the residue outwards. [ ]: non-standard residue; d: D form. The star is where a group is joined. γGlu = O=C(O)[C@H](CCC(=O)[*:2])N[*:1]; Palmitoyl = CCCCCCCCCCCCCCCC(=O)*; Aib = CC(C)(N)C(=O)O

Legend:
human glucagon receptor = human glucagon receptor (human, UniProt P47871 26-477); test: cell-based or functional assay
Chain of human glucagon receptor (P47871 26-477): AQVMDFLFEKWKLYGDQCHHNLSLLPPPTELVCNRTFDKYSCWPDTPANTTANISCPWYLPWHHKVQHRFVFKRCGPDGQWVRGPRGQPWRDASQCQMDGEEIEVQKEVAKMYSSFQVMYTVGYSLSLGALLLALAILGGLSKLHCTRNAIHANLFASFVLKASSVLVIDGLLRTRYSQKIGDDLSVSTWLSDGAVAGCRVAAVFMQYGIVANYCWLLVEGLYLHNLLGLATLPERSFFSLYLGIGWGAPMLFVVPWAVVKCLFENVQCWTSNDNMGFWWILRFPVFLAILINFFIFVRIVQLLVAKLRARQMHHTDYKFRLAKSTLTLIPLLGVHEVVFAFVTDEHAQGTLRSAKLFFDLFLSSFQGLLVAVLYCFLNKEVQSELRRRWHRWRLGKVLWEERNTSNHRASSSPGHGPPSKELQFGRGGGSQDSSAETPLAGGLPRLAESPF

human GLP-1 receptor = human GLP-1 receptor (human, UniProt P43220 24-463); test: cell-based or functional assay

| Binder | EC50 hGlucagonR (cAMP formation) (human glucagon receptor) | EC50 hGLP-1R (cAMP formation) (human GLP-1 receptor) |
| --- | --- | --- |
| HGEGTFTSDLSKQMDSRRAQDFIEWLKNGGPSSGAPPPS-NH2 [SEQ ID NO: (4)] | 565 nM | 0.0174 nM |
| H[Aib]QGTFTSDLSKQMDSRRAQDFIEWLKNGGPSSGAPPPSK([γGlu-Palmitoyl])-NH2 (N-terminus assumed; SMILES CCCCCCCCCCCCCCCC(=O)N[C@@H](CCC(=O)NCCCC[C@H](NC(=O)[C@H](CO)NC(=O)[C@@H]1CCCN1C(=O)[C@@H]1CCCN1C(=O)[C@@H]1CCCN1C(=O)[C@H](C)NC(=O)CNC(=O)[C@H](CO)NC(=O)[C@H](CO)NC(=O)[C@@H]1CCCN1C(=O)CNC(=O)CNC(=O)[C@H](CC(N)=O)NC(=O)[C@H](CCCCN)NC(=O)[C@H](CC(C)C)NC(=O)[C@H](Cc1c[nH]c2ccccc12)NC(=O)[C@H](CCC(=O)O)NC(=O)[C@@H](NC(=O)[C@H](Cc1ccccc1)NC(=O)[C@H](CC(=O)O)NC(=O)[C@H](CCC(N)=O)NC(=O)[C@H](C)NC(=O)[C@H](CCCNC(=N)N)NC(=O)[C@H](CCCNC(=N)N)NC(=O)[C@H](CO)NC(=O)[C@H](CC(=O)O)NC(=O)[C@H](CCSC)NC(=O)[C@H](CCC(N)=O)NC(=O)[C@H](CCCCN)NC(=O)[C@H](CO)NC(=O)[C@H](CC(C)C)NC(=O)[C@H](CC(=O)O)NC(=O)[C@H](CO)NC(=O)[C@@H](NC(=O)[C@H](Cc1ccccc1)NC(=O)[C@@H](NC(=O)CNC(=O)[C@H](CCC(N)=O)NC(=O)C(C)(C)NC(=O)[C@@H](N)Cc1c[nH]cn1)[C@@H](C)O)[C@@H](C)O)[C@@H](C)CC)C(N)=O)C(=O)O) [SEQ ID NO: (59)] | 0.0409 nM | 0.0029 nM |
| H[dS]QGTFTSDLSKQMDSRRAQDFIEWLKNAGPSSGAPPPSK([γGlu-Palmitoyl])-NH2 [SEQ ID NO: (67)] | – | 0.0215 nM |
| H[dS]QGTFTSDLSKQMDSRRAQDFIEWLKN[dA]GPSSGAPPPSK([γGlu-Palmitoyl])-NH2 [SEQ ID NO: (68)] | – | 0.0123 nM |
| H[dS]QGTFTSDLSKQMDSRRAQDFIEWLKNTGPSSGAPPPSK([γGlu-Palmitoyl])-NH2 (N-terminus assumed; SMILES CCCCCCCCCCCCCCCC(=O)N[C@@H](CCC(=O)NCCCC[C@H](NC(=O)[C@H](CO)NC(=O)[C@@H]1CCCN1C(=O)[C@@H]1CCCN1C(=O)[C@@H]1CCCN1C(=O)[C@H](C)NC(=O)CNC(=O)[C@H](CO)NC(=O)[C@H](CO)NC(=O)[C@@H]1CCCN1C(=O)CNC(=O)[C@@H](NC(=O)[C@H](CC(N)=O)NC(=O)[C@H](CCCCN)NC(=O)[C@H](CC(C)C)NC(=O)[C@H](Cc1c[nH]c2ccccc12)NC(=O)[C@H](CCC(=O)O)NC(=O)[C@@H](NC(=O)[C@H](Cc1ccccc1)NC(=O)[C@H](CC(=O)O)NC(=O)[C@H](CCC(N)=O)NC(=O)[C@H](C)NC(=O)[C@H](CCCNC(=N)N)NC(=O)[C@H](CCCNC(=N)N)NC(=O)[C@H](CO)NC(=O)[C@H](CC(=O)O)NC(=O)[C@H](CCSC)NC(=O)[C@H](CCC(N)=O)NC(=O)[C@H](CCCCN)NC(=O)[C@H](CO)NC(=O)[C@H](CC(C)C)NC(=O)[C@H](CC(=O)O)NC(=O)[C@H](CO)NC(=O)[C@@H](NC(=O)[C@H](Cc1ccccc1)NC(=O)[C@@H](NC(=O)CNC(=O)[C@H](CCC(N)=O)NC(=O)[C@@H](CO)NC(=O)[C@@H](N)Cc1c[nH]cn1)[C@@H](C)O)[C@@H](C)O)[C@@H](C)CC)[C@@H](C)O)C(N)=O)C(=O)O) [SEQ ID NO: (71)] | – | 0.0056 nM |
| HSQGTFTSDLSKQMDSRRAQDFIEWLKNGGPSSGAPPPK([γGlu-Palmitoyl])-NH2 [SEQ ID NO: (6)] | – | 0.0031 nM |
